# Test results reported in patent US20220227830A1, “QD DOSING OF GIP RECEPTOR AGONIST PEPTIDE COMPOUNDS AND USES THEREOF” (Takeda Pharmaceutical Company Limited, priority 2020, published 2022).
# Changes are numbered by the printed parent chain. Starred links: 1 amine or outer side, 2 acyl side, 3 side chain; linkers in the order of their positions; H or OH if unused. Non-standard residues stand in square brackets, D forms with d. Groups on a side chain read outwards from the residue. No end group written: not given here. *: point of attachment. C16 diacid = O=C(O)CCCCCCCCCCCCCCC(=O)*; C15 diacid = O=C(O)CCCCCCCCCCCCCC(=O)*; γGlu = O=C(O)[C@H](CCC(=O)[*:2])N[*:1]; AEEA = NCCOCCOCC(=O)O; Aib = CC(C)(N)C(=O)O; C16 = lipid C16
# B1: Compound 159 (peptide)
# peptide: YXEGTFISDYSIAXDRXAQXDFVNWLLAQSPG
# modifications: N-terminal Me (Me-Tyr1); Aib at 2, 17, 20; Km = Lys(R) at 14, linker printed GS (read as G5 = GGGGG), lipid C15DA (C15 diacid); C-terminal OH
# B2: Compound 182 (peptide)
# peptide: B1 peptide with A13X
# modifications: N-terminal Me (Me-Tyr1); Aib at 2, 13, 17, 20; Km = Lys(R) at 14, linker printed GS (read as G5 = GGGGG), lipid C15DA (C15 diacid); C-terminal OH
# B3: Compound 186 (peptide)
# peptide: B1 peptide with A13X, X14L
# modifications: N-terminal Me (Me-Tyr1); Aib at 2, 13, 20; Km = Lys(R) at 17, linker printed GS (read as G5 = GGGGG), lipid C15DA (C15 diacid); C-terminal OH
# B4: Compound 169 (peptide)
# peptide: Me-Y[Aib]EGTFISDYSIALDR[Aib]KQ[Aib]DFVNWLLAQRG-OH
# modifications: not fully specified (residues 1, 18)
# B5: Compound 158 (peptide)
# peptide: YXEGTFISDYSIAXDRXAQXDFVNWLLAQSPSSG
# modifications: N-terminal Me (Me-Tyr1); Aib at 2, 17, 20; Km = Lys(R) at 14, linker printed GS (read as G5 = GGGGG), lipid C15DA (C15 diacid); C-terminal OH
# B6: Compound 161 (peptide)
# peptide: Me-Y[Aib]EGTFISDYSIALDR[Aib]K([AEEA-AEEA-γGlu-γGlu-C15 diacid])Q[Aib]NFVNWLLAQSG-OH
# B7: Compound 201 (peptide)
# peptide: Me-Y[Aib]EGTFISDYSIALDR[Aib]AQ[Aib]K([2OEG-γGlu-γGlu-γGlu-C15 diacid])FVNWLLAQKG-OH
# B8: Compound 190 (peptide)
# peptide: Me-Y[Aib]EGTFISDYSIALDR[Aib]HQ[Aib]NFVNWK([γGlu-C16])LAQR-NH2
# B9: Compound 160 (peptide)
# peptide: YXEGTFISDYSIAXDRXAQXNFVNWLLAQSG
# modifications: N-terminal Me (Me-Tyr1); Aib at 2, 17, 20; Km = Lys(R) at 14, linker printed GS (read as G5 = GGGGG), lipid C15DA (C15 diacid); C-terminal OH
# B10: Compound 172 (peptide)
# peptide: B9 peptide with N21D
# modifications: N-terminal Me (Me-Tyr1); Aib at 2, 17, 20; Km = Lys(R) at 14, linker printed GS (read as G5 = GGGGG), lipid C15DA (C15 diacid); C-terminal OH
# B11: Compound 181 (peptide)
# peptide: B9 peptide with N21D, S30X
# modifications: N-terminal Me (Me-Tyr1); Aib at 2, 17, 20; Km = Lys(R) at 14, linker printed GS (read as G5 = GGGGG), lipid C15DA (C15 diacid); K(Ac) (N-epsilon-acetyllysine) at 30; C-terminal OH
# B12: Compound 177 (peptide)
# peptide: B9 peptide with R16S, N21D, S30K
# modifications: N-terminal Me (Me-Tyr1); Aib at 2, 17, 20; Km = Lys(R) at 14, linker printed GS (read as G5 = GGGGG), lipid C15DA (C15 diacid); C-terminal OH
# B13: Compound 168 (peptide)
# peptide: B9 peptide with X14L, N21D
# modifications: N-terminal Me (Me-Tyr1); Aib at 2, 20; Km = Lys(R) at 17, linker printed GS (read as G5 = GGGGG), lipid C15DA (C15 diacid); C-terminal OH
# B14: Compound 171 (peptide)
# peptide: Me-Y[Aib]EGTFISDYSIALDR[Aib]K([AEEA-AEEA-γGlu-γGlu-C15 diacid])Q[Aib]NFVNWLLAQRG-OH
# B15: Compound 157 (peptide)
# peptide: YXEGTFISDYSIAXDRXAQXDFVNWLLAQSPSSGAPG
# modifications: N-terminal Me (Me-Tyr1); Aib at 2, 17, 20; Km = Lys(R) at 14, linker printed GS (read as G5 = GGGGG), lipid C15DA (C15 diacid); C-terminal OH
# B16: Compound 196 (peptide)
# peptide: Me-Y[Aib]EGTFISDYSIAK([AEEA-AEEA-γGlu-C16 diacid])DRIAQ[Aib]NFVNWLLAQK
# B17: Compound 184 (peptide)
# peptide: Me-Y[Aib]EGTFISDYSIALDR[Aib]AQ[Aib]K([AEEA-AEEA-γGlu-γGlu-C15 diacid])FVNWLLAQSPG-OH
# B18: Compound 164 (peptide)
# peptide: YXEGTFISDYSIALDRXAQXNFVNWLLAQSPSSGAPPPS
# modifications: N-terminal Me (Me-Tyr1); Aib at 2, 20; Km = Lys(R) at 17, linker printed GS (read as G5 = GGGGG), lipid C15DA (C15 diacid); C-terminal NH2
# B19: Compound 165 (peptide)
# peptide: B18 peptide with N21D, S30R
# modifications: N-terminal Me (Me-Tyr1); Aib at 2, 20; Km = Lys(R) at 17, linker printed GS (read as G5 = GGGGG), lipid C15DA (C15 diacid); C-terminal OH
# B20: Compound 167 (peptide)
# peptide: B18 peptide with N21D
# modifications: N-terminal Me (Me-Tyr1); Aib at 2, 20; Km = Lys(R) at 17, linker printed GS (read as G5 = GGGGG), lipid C15DA (C15 diacid); C-terminal NH2
# B21: Compound 187 (peptide)
# peptide: B18 peptide with A13X, L14X
# modifications: N-terminal Me (Me-Tyr1); Aib at 2, 13, 17, 20; Km = Lys(R) at 14, linker printed GS (read as G5 = GGGGG), lipid C15DA (C15 diacid); C-terminal OH
# B22: Compound 166 (peptide)
# peptide: B18 peptide with N21D
# modifications: N-terminal Me (Me-Tyr1); Aib at 2, 20; Km = Lys(R) at 17, linker printed GS (read as G5 = GGGGG), lipid C15DA (C15 diacid); C-terminal OH
# B23: Compound 214 (peptide)
# peptide: Me-Y[Aib]EGTFISDYSIALDR[Aib]AQ[Aib]KFVNWLLAQKG-OH
# modifications: not fully specified (residues 1, 21)
# B24: Compound 185 (peptide)
# peptide: Me-Y[Aib]EGTFISDYSI[Aib]LDR[Aib]KQ[Aib]DFVNWLLAQSPG-OH
# modifications: not fully specified (residues 1, 18); printed as Me-Tyr-Aib-Glu-Gly-Thr-Phe-Ile-Ser-Asp-Tyr-Ser-Ile-Aib-Leu-Asp-Arg-Aib-Lys(R)-Gln-Aib-Asp-Phe-Val-Asn-Trp-Leu-Leu-Ala-Gln-Ser-Pro-Gly-OH
# B25: Compound 180 (peptide)
# peptide: Me-Y[Aib]EGTFISDYSIAK([Gly-Gly-Gly-Gly-γGlu-C15 diacid])DR[Aib]AQ[Aib]DFVNWLLAQKG-OH
# B26: Compound 163 (peptide)
# peptide: Me-Y[Aib]EGTFISDYSIALDR[Aib]K([AEEA-AEEA-γGlu-γGlu-C15 diacid])Q[Aib]DFVNWLLAQSG-OH
# B27: Compound 173 (peptide)
# peptide: Me-Y[Aib]EGTFISDYSIAKDR[Aib]AQ[Aib]DFVNWLLAQRG-OH
# modifications: not fully specified (residues 1, 14)
# B28: Compound 183 (peptide)
# peptide: Me-Y[Aib]EGTFISDYSI[Aib]LDR[Aib]AQ[Aib]K([AEEA-AEEA-γGlu-γGlu-C15 diacid])FVNWLLAQSPG-OH
# B29: Compound 188 (peptide)
# peptide: Y[Aib]EGTFISDYSIALDR[Aib]AQ[Aib]K([AEEA-AEEA-γGlu-γGlu-C15 diacid])FVNWLLAQKG-OH
# modifications: not fully specified (residue 1)
# B30: Compound 175 (peptide)
# peptide: Me-Y[Aib]EGTFISDYSI[Aib]LDR[Aib]AQ[Aib]K([AEEA-AEEA-γGlu-γGlu-C15 diacid])FVNWLLAQKG-OH
# B31: Compound 162 (peptide)
# peptide: Me-Y[Aib]EGTFISDYSIALDR[Aib]K([AEEA-AEEA-γGlu-γGlu-C15 diacid])Q[Aib]DFVNWLLAQRG-OH
# B32: Compound 192 (peptide)
# peptide: YGEGTFISDYSIAK([AEEA-AEEA-γGlu-C16 diacid])DRIHQQNFVNWLLAQK
# B33: Compound 170 (peptide)
# peptide: Me-Y[Aib]EGTFISDYSIALDR[Aib]KQ[Aib]DFVNWLLAQSG-OH
# modifications: not fully specified (residues 1, 18)
# Assays:
# [1] = biological target: T1, full-length human GIPR with an N-terminal FLAG tag, overexpressed on HEK-293T cells (human, UniProt P48546 22-466); test: cell-based or functional assay
# T1 sequence (looked up): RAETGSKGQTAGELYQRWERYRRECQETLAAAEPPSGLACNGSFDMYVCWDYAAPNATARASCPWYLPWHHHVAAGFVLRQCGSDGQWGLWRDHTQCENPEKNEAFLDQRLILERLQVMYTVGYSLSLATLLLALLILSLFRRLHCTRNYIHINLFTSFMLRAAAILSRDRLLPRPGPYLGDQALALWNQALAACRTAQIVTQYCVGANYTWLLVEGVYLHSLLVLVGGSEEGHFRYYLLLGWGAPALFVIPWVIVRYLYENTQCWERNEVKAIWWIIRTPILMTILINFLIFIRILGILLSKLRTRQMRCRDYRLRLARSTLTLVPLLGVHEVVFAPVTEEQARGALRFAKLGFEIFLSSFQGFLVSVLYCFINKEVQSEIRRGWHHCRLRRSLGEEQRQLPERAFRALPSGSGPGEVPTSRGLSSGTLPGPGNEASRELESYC
# [2] = biological target: full-length human GLP-1R with an N-terminal FLAG tag, overexpressed on HEK-293T cells (human, UniProt P43220 24-463); test: cell-based or functional assay
Binder,"Human GIPR cAMP, HEK293T EC50 [1]",Human GLP1R cAMP HEK293T EC50 [2]
B1,0.0002 nM,145 nM
B2,0.0002 nM,155 nM
B3,0.0003 nM,26.9 nM
B4,0.0006 nM,> 1000 nM
B5,0.0002 nM,245 nM
B6,0.0003 nM,> 1000 nM
B7,0.0002 nM,9.12 nM
B8,0.0158 nM,1000 nM
B9,0.0003 nM,24 nM
B10,0.0004 nM,64.6 nM
B11,0.0004 nM,162 nM
B12,0.0002 nM,1000 nM
B13,0.0003 nM,17.4 nM
B14,0.0005 nM,> 1000 nM
B15,0.0001 nM,347 nM
B16,0.0002 nM,692 nM
B17,0.0003 nM,> 1000 nM

Binder,"Human GIPR cAMP, HEK293T EC50 [1]",Human GLP1R cAMP HEK293T EC50 [2]
B18,0.0002 nM,9.77 nM
B19,0.0004 nM,85.1 nM
B20,0.0004 nM,41.7 nM
B21,0.0002 nM,51.3 nM
B22,0.0004 nM,89.1 nM
B23,0.0003 nM,
B24,0.0004 nM,> 1000 nM
B25,0.0003 nM,> 1000 nM
B26,0.0003 nM,> 1000 nM
B27,0.0005 nM,> 1000 nM
B28,0.0005 nM,89.1 nM
B29,0.0003 nM,22.9 nM
B30,0.0004 nM,44.7 nM
B31,0.0002 nM,513 nM
B32,0.148 nM,741 nM
B33,0.0004 nM,> 1000 nM
